Laboratory results: patent US20180162944A1 (WUXI BIOLOGICS SHANGHAI, published 2018)

T1: PD-L2 expressed on transfected CHO cells (Homo sapiens (Human), UniProt Q9BQ51 20-273)
T1 sequence: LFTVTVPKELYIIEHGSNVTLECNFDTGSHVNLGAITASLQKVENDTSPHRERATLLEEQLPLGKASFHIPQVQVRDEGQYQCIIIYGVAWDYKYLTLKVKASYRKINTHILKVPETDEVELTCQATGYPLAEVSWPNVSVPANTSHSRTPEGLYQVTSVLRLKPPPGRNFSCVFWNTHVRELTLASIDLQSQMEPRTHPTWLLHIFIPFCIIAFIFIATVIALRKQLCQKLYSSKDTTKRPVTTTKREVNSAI


Legend:
murine PD-L1 [1] = target: T2, murine PD-L1 (mouse, UniProt Q9EP73 19-239, limits assumed); experiment: ELISA or FACS
T2 construct: also called mouse PD-L1

[2] = target: T1, PD-L2 expressed on transfected CHO cells; experiment: FACS, PD-L2 transfected CHO-K1 cells, single staining, concentration not shown
Protocol: 3.8. Cross-family binding assay by FACS: to examine the cross-family binding activity of the humanized antibodies, cells lines that express PD-L2 were stained with the humanized antibodies, followed by 2nd antibody staining with FITC conjugated goat anti-human IgG Fc. PD-L1 expressing cells were used as positive control. Corresponding parental cell lines were used as negative controls. The stained cells were analyzed by using a BD Biosciences FACSCanto II and FlowJo Version software.
CHO cells transfected with PD-L1 or PD-L2 were stained with humanized PD-L1 antibodies and analysis by FACS.

[3] = target: T3, human PD-L1 expressed on cells (CHO / CHO-K1 cells transfected with full-length human PD-L1); native PD-L1 on … (human, UniProt Q9NZQ7 19-290); experiment: FACS, CHO cells transfected with full-length human PD-L1, MFI against antibody concentration
T3 construct: whole, on cells; also called PD-L1 expressing CHO cell; PD-L1 transfected CHO cells

recombinant human PD-L1 = target: T4, recombinant human PD-L1 (human, UniProt Q9NZQ7 19-238); experiment: SPR (ProteOn XPR36), antibody captured on Protein A, human PD-L1 as analyte, 1:1 Langmuir fit
T4 construct: the whole natural entry is named
Protocol: 3.2. […] Protein A protein (Sigma) was immobilized to a GLM sensor chip (Bio-Rad) through amine coupling. Purified antibodies were flowed over the sensor chip and captured by the Protein A. The chip was rotated 90° and washed with running buffer (1×PBS/0.01% Tween20, Bio-Rad) until the baseline is stable. Five concentrations of human PD-L1 and running buffer were flowed against the antibody flow cell at a flow rate 100 μL/min for an association phase of 240s, followed by 600s dissociation. The chip was regenerated with pH 1.7 H₃PO₄ after each run. The association and dissociation curve was fit to a 1:1 Langmuir binding model using ProteOn software.

cynomolgus monkey PD-L1 [4] = target: T5, cynomolgus monkey PD-L1 (cynomolgus monkey, UniProt G7PSE7 19-238); experiment: ELISA, cynomolgus PD-L1 coated on the plate, OD450 against antibody concentration; lower panel
T5 construct: also called cyno PD-L1
Protocol: (§1) 3.7. Cross-species binding assay: the cross-reactivity of the Ab to cynomolgus and murine PD-L1 was measured by ELISA. Human, cyno and mouse PD-L1 were coated on ELISA plates, respectively. After blocking, the humanized antibodies were added into the plate and incubated at room temperature for at least 2 hours. The binding of the antibodies to the coated antigens was detected by using goat anti-human IgG Fc-HRP. The color reaction was developed using TMB substrate and stopped by 2M HCl. The ELISA plates were analyzed at 450 nm using a Molecular Device M5e microplate reader.

[5] = target: T3, human PD-L1 expressed on cells (CHO / …); experiment: FACS, native PD-L1 on human monocyte-derived dendritic cells, MFI against antibody concentration
[6] = target: T3, human PD-L1 expressed on cells (CHO / …); experiment: FACS competition on human PD-L1 expressing CHO cells; blocked ligand: mouse Fc-tagged human PD-1; bottom panel
cynomolgus monkey PD-L1 [7] = target: T5, cynomolgus monkey PD-L1; experiment: ELISA, cynomolgus PD-L1 coated on the plate, OD450 against antibody concentration; upper panel
Protocol: as §1

[8] = target: T3, human PD-L1 expressed on cells (CHO / …); experiment: FACS competition on human PD-L1 expressing CHO cells; blocked ligand: mouse Fc-tagged human PD-1; middle panel
murine PD-L1 [9] = target: T2, murine PD-L1; experiment: ELISA, antigen coated on plate
Protocol: as §1

[10] = target: T3, human PD-L1 expressed on cells (CHO / …); experiment: FACS competition on human PD-L1 expressing CHO cells; blocked ligand: mouse Fc-tagged human PD-1; top panel

T2 sequence (Q9EP73 19-239 limits assumed): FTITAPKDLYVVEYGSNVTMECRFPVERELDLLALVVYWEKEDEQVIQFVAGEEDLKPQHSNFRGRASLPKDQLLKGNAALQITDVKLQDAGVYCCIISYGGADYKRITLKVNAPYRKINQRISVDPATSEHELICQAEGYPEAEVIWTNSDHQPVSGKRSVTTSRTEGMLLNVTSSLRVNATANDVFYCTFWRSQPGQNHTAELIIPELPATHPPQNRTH
T5 sequence (G7PSE7 entry or part of it limits assumed): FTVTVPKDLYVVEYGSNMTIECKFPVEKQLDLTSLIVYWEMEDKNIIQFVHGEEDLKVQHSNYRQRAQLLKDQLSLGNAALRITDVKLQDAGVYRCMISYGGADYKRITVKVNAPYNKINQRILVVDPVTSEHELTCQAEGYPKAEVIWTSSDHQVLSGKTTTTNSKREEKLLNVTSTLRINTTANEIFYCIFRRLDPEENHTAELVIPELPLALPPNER
T4 sequence (Q9NZQ7 19-238 limits assumed): as the sequence (G7PSE7 entry or part of it limits assumed) above, with T33A, S34A, N62S, Q68R, R82Q, L173F, A185T, I192T, L215H counted along it
T3 sequence (Q9NZQ7 19-290): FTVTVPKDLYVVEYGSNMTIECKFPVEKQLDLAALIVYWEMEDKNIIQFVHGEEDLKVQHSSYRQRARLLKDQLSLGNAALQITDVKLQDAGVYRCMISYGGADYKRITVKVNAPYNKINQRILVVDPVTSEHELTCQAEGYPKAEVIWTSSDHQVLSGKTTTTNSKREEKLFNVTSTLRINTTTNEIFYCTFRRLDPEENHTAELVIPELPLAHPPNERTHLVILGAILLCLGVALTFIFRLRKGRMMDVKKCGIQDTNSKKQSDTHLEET

Binder	binding result (murine PD-L1 [1])	binding result [2]	EC50 [3] [nM]	Kd (recombinant human PD-L1) [nM]	koff (recombinant human PD-L1) [s⁻¹]	kon (recombinant human PD-L1) [M⁻¹ s⁻¹]	EC50 (cynomolgus monkey PD-L1 [4]) [nM]	EC50 [5] [nM]	IC50 [6] [nM]	EC50 (cynomolgus monkey PD-L1 [7]) [nM]	IC50 [8] [nM]	binding result (murine PD-L1 [9])	IC50 [10] [nM]
2.74.15.hAb8 (antibody, V domains shown, Humanized antibody with a human constant region of IgG4 isotype) VH: QVQLQESGPGLVKPSETLSLTCTVSGYSITSGYIWHWIRQPPGKGLEWIGYIHYSGTTDFNPSLESRVTISVDTSKNQFSLKLSSVTAADTAVYYCAREGRSYGGFAYWGQGTLVTVSS VL: DIQMTQSPSSLSASVGDRVTITCKASQSVSNGVAWYQQKPGKVPKLLIYYASNRFTGVPSRFSGSGSGTDFTLTISSLQPEDVATYYCQQDYSSPFTFGQGTKLEIK	no binding	no binding	1.17	0.0676	5.48e-05	811000	0.0524	2.52	0.196	–	–	–	–
2.74.15.hAb4 (antibody, V domains shown, Humanized antibody with a human constant region of IgG4 isotype) VH: QVQLQESGPGLVKPSETLSLTCTVSGYSITSGYIWHWIRQPPGKGLEWIGYIHYSGTTDFNPSLESRVTISVDTSKNQFSLKLSSVTAADTAVYYCAREGRSYGGFAYWGQGTLVTVSA VL: SFVMTQSPSSLSASVGDRVTITCKASQSVSNGVAWYQQKPGKVPKLLIYYASNRFTGVPSRFSGSGSGTDFTLTISSLQPEDVATYYCQQDYSSPFTFGSGTELEIK	–	no binding	1.53	0.0389	2.83e-05	728000	–	1.82	–	0.00577	–	no binding	0.622
2.74.15.hAb7 (antibody, V domains shown, Humanized antibody with a human constant region of IgG4 isotype) VH: QVQLQESGPGLVKPSETLSLTCTVSGYSITSGYIWHWIRQPPGKGLEWIGYIHYSGTTDFNPSLESRVTISVDTSKNQFSLKLSSVTAADTAVYYCAREGRSYGGFAYWGQGTLVTVSS VL: DIQLTQSPSFLSASVGDRVTITCKASQSVSNGVAWYQQKPGKAPKLLIYYASNRFTGVPSRFSGSGSGTEFTLTISSLQPEDFATYYCQQDYSSPFTFGQGTKLEIK	no binding	no binding	1.18	0.155	0.000146	938000	0.000721	2.53	0.199	–	–	–	–

The next binders have a lower EC50 [3] than those just listed; values first:

binding result (murine PD-L1 [1])	binding result [2]	EC50 [3] [nM]	Kd (recombinant human PD-L1) [nM]	koff (recombinant human PD-L1) [s⁻¹]	kon (recombinant human PD-L1) [M⁻¹ s⁻¹]	EC50 (cynomolgus monkey PD-L1 [4]) [nM]	EC50 [5] [nM]	IC50 [6] [nM]	EC50 (cynomolgus monkey PD-L1 [7]) [nM]	IC50 [8] [nM]	binding result (murine PD-L1 [9])	IC50 [10] [nM]	Binder
no binding	no binding	1.08	0.149	0.000172	1.16e+06	–	2.39	–	0.0238	0.157	–	–	2.74.15.hAb6 (antibody, V domains shown, Humanized antibody with a human constant region of IgG4 isotype) VH: QVQLQESGPGLVKPSETLSLTCTVTGYSITSGYIWHWIRQPAGKGLEWIGYIHYSGTTDFNPSLESRVTISVDTSKNQFSLKLSSVTAADTAVYYCAREGRSYGGFAYWGQGTLVTVSS VL: DIQMTQSPSSLSASVGDRVTITCKASQSVSNGVAWYQQKPGKVPKLLIYYASNRFTGVPSRFSGSGSGTDFTLTISSLQPEDVATYYCQQDYSSPFTFGQGTKLEIK
no binding	no binding	1.11	0.106	0.000135	1.27e+06	–	2	–	0.026	0.15	–	–	2.74.15.hAb5 (antibody, V domains shown, Humanized antibody with a human constant region of IgG4 isotype) VH: QVQLQESGPGLVKPSETLSLTCTVTGYSITSGYIWHWIRQPAGKGLEWIGYIHYSGTTDFNPSLESRVTISVDTSKNQFSLKLSSVTAADTAVYYCAREGRSYGGFAYWGQGTLVTVSS VL: DIQLTQSPSFLSASVGDRVTITCKASQSVSNGVAWYQQKPGKAPKLLIYYASNRFTGVPSRFSGSGSGTEFTLTISSLQPEDFATYYCQQDYSSPFTFGQGTKLEIK
